Patent US20260201069A1, “ANTIBODIES THAT SPECIFICALLY BIND MODIFIED OLIGONUCLEOTIDES” (Hoffmann-La Roche Inc., priority 2024, published 2026)

Columns and labels:
[1] = test system: LNA-modified ASOs and antibody-ASO conjugates; assay: SPR binding; details: summary in words
Experimental: (§1) In more detail, LNA binding of the antibodies according to the current invention was characterized by surface plasmon resonance (SPR) using a BIAcore instrument with a HEPES-based running and dilution buffer at 25° C. About 100-200 resonance units (RU) of an anti-LNA antibody with an Fc-region of the human IgG1 subclass and the mutations P329G, L234A and L235A (according to Kabat EU index; human IgG Fc-PGLALA) or an anti-LNA Fab fragment with human CL and CH1 (kappa, IgG1 isotype), respectively, was captured on the surface of a Series S Sensor Chip CM3 derivatized by standard amine coupling with either a mouse anti-human IgG Fc-PGLALA antibody or a goat anti-human F(ab′2) antibody with final total surface densities of approximately 5000 RU. Different LNA-modified ASOs were passed over the derivatized SPR chip surface by injecting the respective solutions in a 1:3 dilution series up to a final concentration of 1000 nM. Association was monitored for 3 min and dissociation for 5 min at a flow rate of 30 μl/min each. Bulk refractive index differences were corrected by subtracting blank injections and by subtracting the response obtained from the reference flow cell without captured antibody. Curve fitting was performed using the 1:1 Langmuir binding model within the BIAcore evaluation software.
Further analyses of the pan anti-LNA antibody according to the invention produced by clone 1.9.21 a trivalent, bispecific format was used. This trivalent, bispecific format comprises an IgG1 Fc-region (with knobs-into-holes-cys1 mutations) to which at one of the N-termini of the Fc-region a germline Fab (DP47; SEQ ID NO: 137 and 138) has been fused and at both of the C-termini of the Fc-region each one anti-LNA Fab (fab 0699) according to the current invention produced by clone 1.9.21 has been fused (fusion 1861). […]
To assess the specificities and affinities of LNA-binding antibodies, surface plasmon resonance was done as described in WO 2020/141117 and WO 2022/175217. […] Association was monitored for 3 min. and dissociation for 5 min. at a flow rate of 30 μl/min each. […]

[2] = test system: fusion 2899 (antibody-ASO 918 conjugate); assay: SPR (BIAcore) binding kinetics and affinity; details: analyte fusion 2899, bivalent IgG format, 25° C.
Experimental: as §1
(§2) To assess the binding specificities and affinities of the LNA-binding antibodies according to the current invention, surface plasmon resonance was used as described, e.g., in WO 2020/141117 and WO 2022/175217.
(§3) To assess the specificities and affinities of LNA-binding antibodies, surface plasmon resonance was done as described in WO 2020/141117 and WO 2022/175217. ASO binding was investigated by surface plasmon resonance (SPR) using a BIAcore T200 instrument (Cytiva). As a running and dilution buffer, HEPES buffered saline (HBS) containing 0.05% PS20 was used, the temperature was set to 25° C. For capturing anti-LNA Fabs or complete anti-LNA antibodies to a Series S Sensor Chip CM3 (Cytiva), either a mouse anti-human IgG antibody (Roche Diagnostics GmbH) or a goat anti-human F(ab′2) antibody (Jackson ImmunoResearch) was immobilized using standard amine coupling chemistry with final total surface densities of approximately 5000 resonance units (RU). The anti-LNA antibodies were captured to the surface by an injection for 30 sec., leading to response levels of approx. 100-200 RU. Different ASO molecules were injected in a 1:3 dilution series up to 1000 nM. Association was monitored for 3 min. and dissociation for 5 min. at a flow rate of 30 μl/min each. Subsequently, the surface was regenerated by injecting 10 mM NaOH (anti-human IgG antibody surface) or 10 mM Glycine pH 1.7 (anti-human IgG F(ab′2) antibody surface) for 60 sec. Bulk refractive index differences were corrected by subtracting blank injections and by subtracting the response obtained from the reference flow cell without captured antibody. Curve fitting was performed using the 1:1 Langmuir binding model within the BIAcore evaluation software.

ASO 827 = assay: SPR (BIAcore) binding kinetics and affinity; details: analyte ASO 827, bivalent IgG format, 25° C.
Experimental: as §1, §2, §3

ASO 042 = assay: SPR (BIAcore) binding kinetics and affinity; details: analyte ASO 042, bivalent IgG format, 25° C.
Experimental: as §1, §2, §3

ASO 297 = assay: SPR (BIAcore) binding kinetics and affinity; details: analyte ASO 297, bivalent IgG format, 25° C.
Experimental: as §1, §2, §3

ASO 420 = assay: SPR (BIAcore) binding kinetics and affinity; details: analyte ASO 420, bivalent IgG format, 25° C.; for Kd: read-out: K
Experimental: as §1, §2, §3

[3] = test system: fusion 2489 (antibody-ASO 918 conjugate); assay: SPR (BIAcore) binding kinetics and affinity; details: analyte fusion 2489, bivalent IgG format, 25° C.
Experimental: as §1, §2, §3

| Molecule | binding to the tested analytes (ASOs and antibody-ASO conjugates) [1] | K [2] | K (ASO 827) | K (ASO 042) | K (ASO 297) | K (ASO 420) | K [3] | Koff (ASO 297; oos = out of specification) | Kd (ASO 420) [nM] | Kd ([2]; read-out: K) [nM] | Kd (ASO 827; read-out: K) [nM] | Kon (ASO 042; oos = out of specification) | Kd (ASO 042; read-out: K) [nM] | Kd (ASO 297; read-out: K) [nM] | Kd ([3]; read-out: K) [nM] |
| --- | --- | --- | --- | --- | --- | --- | --- | --- | --- | --- | --- | --- | --- | --- | --- |
| mAb 5391: anti-LNA antibody produced by clone 1.2.8 in the bivalent standard Y-shaped IgG format (antibody, V domains shown) VH: QIQLRESGPGLVAPSQSLSITCTVSGFSLTNYGVHWVRQPPGKGLEWLGVIWAGGSTIYNSALMSRLSISRDNSKSQVFLEMNSLQTYDTAMYYCARDRPFDGFFFSYWGQGTALTVSS VL: DVLMTQTPLSLPVSLGDQASISCRSSQAIVHRSGNTFLEWYLQKPGQSPKLLIYKVSNRFSGVPDRFSGSGSGTDFTLKINRVEAEDLGVYYCFQGSHVPYTFGSGTKLEIK | no to very low binding to all of the analytes tested | no/low binding | no binding | no binding | no binding | no binding | no/low binding |  |  |  |  |  |  |  |  |
| mAb 5392: anti-LNA antibody produced by clone 1.7.15 in the bivalent standard Y-shaped IgG format (antibody, V domains shown) VH: QVQLKQSGPSFVQPSQSLSITCTVSGFSLTTYGVHWVRQSPGKGLEWLGVIWRSGGTDYNAAFMSRLSITKDNSKSQVFFKMNSLQTDDTAIYYCTNLYYWGQGTTLTVSS VL: DIVMTQATFSNPVTLGTSVSISCRSSKSLLRSNGITYLYWYLQKPGQSPQLLIYQMSNLASGVPDRFSSSGSGTDFTLRISRVEAEDVGVYYCGQNLELPYTFGSGTKVEIK | binds to some of the ASOs, while showing no or very low binding to other ASOs | no/low binding | no binding | no binding |  |  | no/low binding | oos | 198 |  |  |  |  |  |  |
| mAb 5393: anti-LNA antibody produced by clone 1.9.21 in the bivalent standard Y-shaped IgG format (antibody, V domains shown) VH: QVQLQQSGAELVRPGTSVKVSCKASGYAFTNYLIEWIKQRPGQGLEWIGVINPGSGGTNYNEKFRVKATLTADKSSSTAYMQLSSLTSDDSAVYFCARGGGYYWGQGTLVTVSA VL: DIVMTQAAPSVPVTPGESVSISCRSSKSLLHSNGNTYLFWFLQRPGQSPQVLIYRMSNLASGVPDRFSGSGSGTAFTLRISRVEAEDVGVYYCMQHLEYPYTFGSGTRLEIK | binds to all of the tested ASOs and antibody-ASO conjugates with good affinity |  |  |  |  |  |  |  | 0.0379 | 0.169 | 0.0414 | oos | < 1 | 26.2 | 0.116 |
